This is an account of results in publication PMC6722932 (Toxins, 2019).

The series deals with the molecule itself. Kind of series: negative-stain electron microscopy; 7 uM lysenin incubated with MLVs of SM/DOPC/cholesterol (1:2:1) for 30 min at 20 °C, with or without 10 mM DTT; fixed with 1% glutaraldehyde, stained with 2% uranyl acetate.

B1: lysenin^WT (natural protein)
chain: MSAKAAEGYEQIEVDVVAVWKEGYVYENRGSTSVDQKITITKGMKNVNSETRTVTATHSIGSTISTGDAFEIGSVEVSYSHSHEESQVSMTETEVYESKVIEHTITIPPTSKFTRWQLNADVGGADIEYMYLIDEVTPIGGTQSIPQVITSRAKIIVGRQIILGKTEIRIKHAERKEYMTVVSRKSWPAATLGHSKLFKFVLYEDWGGFRIKTLNTMYSGYEYAYSSDQGGIYFDQGTDNPKQRWAINKSLPLRHGDVVTFMNKYFTRSGLCYDDGPATNVYCLDKREDKWILEVVG
notes: also called recombinant lysenin; wild-type lysenin; source: E. coli BL21(DE3), purified (Ni Sepharose 6 Fast Flow)
For B1, the binding result is “binds”.
